In publication PMC9440474 (2022) one finds Kd and IC50 data, which are given here for one molecule.

For experiment [1], the target named is T1, S1_SS* (disulfide 2-9 (inferred)).
T1 chain: ACLIPSWGCGGG-{Dap(FAM)}
The experiment in a line: fluorescence polarization.

Experiment [2] concerns the target T2, S1_APBA-3* (linker (positions not given here) via APBA‑3; reading uncertain).
T2 chain: ACLIPSWGCGGG-{Dap(FAM)}
The experiment in a line: fluorescence polarization.

Experiment [3] deals with T3, S1_SS (disulfide 2-9 (inferred)).
T3 chain: ACLIPSWGCGGG
The experiment in a line: fluorescence polarization competition.

Bridge positions count the residues as written; N and C are the ends. Ends that are not written are not given here. APBA‑3 = not defined here

B1: Sortase A (protein)
chain: MKKWTNRLMTIAGVVLILVAAYLFAKPHIDNYLHDKDKDEKIEQYDKNVKEQASKDKKQQAKPQIPKDKSKVAGYIEIPDADIKEPVYPGPATPEQLNRGVSFAEENESLDDQNISIAGHTFIDRPNYQFTNLKAAKKGSMVYFKVGNETRKYKMTSIRDVKPTDVGVLDEQKGKDKQLTLITCDDYNEKTGVWEKRKIFVATEVK
Consider B1, for which the figures for the Kd in experiment [1] and in experiment [2] were 5.2 µM and 64 µM, respectively. Besides, in experiment [3], the IC50 amounted to 26 µM.
